Data set [1] addresses T1, Y67D8A.3 (Y67D8A.3) (Caenorhabditis elegans) (UniProt Q95XU1).
T1 sequence: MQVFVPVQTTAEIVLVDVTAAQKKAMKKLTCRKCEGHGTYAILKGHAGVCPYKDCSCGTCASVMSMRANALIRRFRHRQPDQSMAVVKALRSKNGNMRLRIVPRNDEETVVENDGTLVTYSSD

Data set [2] has as its target T2, daf-12 (F11A1.3) (Caenorhabditis elegans) (UniProt G5EFF5).
T2 sequence: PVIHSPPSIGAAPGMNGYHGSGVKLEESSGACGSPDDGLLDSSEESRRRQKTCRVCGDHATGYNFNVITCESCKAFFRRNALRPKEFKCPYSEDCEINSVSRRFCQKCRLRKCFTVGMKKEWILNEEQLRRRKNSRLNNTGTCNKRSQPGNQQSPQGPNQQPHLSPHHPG

The target of data set [3] is T3, nhr-3 (H01A20.1) (Caenorhabditis elegans) (UniProt Q9XTJ4).
T3 sequence: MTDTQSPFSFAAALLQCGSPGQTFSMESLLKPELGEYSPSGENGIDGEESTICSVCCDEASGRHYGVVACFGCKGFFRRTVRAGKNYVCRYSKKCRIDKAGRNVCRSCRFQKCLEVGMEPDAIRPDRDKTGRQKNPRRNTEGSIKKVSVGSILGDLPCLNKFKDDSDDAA

Data set [4] deals with T4, K02D7.2 (K02D7.2) (Caenorhabditis elegans) (UniProt O45103).
T4 sequence: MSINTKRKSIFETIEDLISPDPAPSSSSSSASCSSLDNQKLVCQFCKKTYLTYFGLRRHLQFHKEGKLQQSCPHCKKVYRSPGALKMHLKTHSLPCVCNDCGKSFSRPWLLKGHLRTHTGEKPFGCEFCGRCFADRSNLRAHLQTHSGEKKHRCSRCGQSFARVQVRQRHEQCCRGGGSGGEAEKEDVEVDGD

Data set [5] addresses T5, ces-1 (F43G9.11) (Caenorhabditis elegans) (UniProt G5ECN8).
T5 sequence: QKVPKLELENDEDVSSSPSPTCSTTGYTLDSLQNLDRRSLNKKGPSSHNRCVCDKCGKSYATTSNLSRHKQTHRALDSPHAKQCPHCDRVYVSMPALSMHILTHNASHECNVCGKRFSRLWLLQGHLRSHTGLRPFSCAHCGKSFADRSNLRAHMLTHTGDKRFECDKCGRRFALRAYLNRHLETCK

Data set [6] deals with T6, unc-120 (D1081.2) (Caenorhabditis elegans) (UniProt Q18955).
T6 sequence: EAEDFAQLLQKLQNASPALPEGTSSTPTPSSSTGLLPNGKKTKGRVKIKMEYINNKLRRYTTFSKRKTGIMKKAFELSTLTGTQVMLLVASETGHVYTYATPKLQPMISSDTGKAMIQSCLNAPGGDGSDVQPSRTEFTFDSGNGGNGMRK

For data set [7], the target named is T7, hlh-16 (DY3.3) (Caenorhabditis elegans) (UniProt O45320).
T7 sequence: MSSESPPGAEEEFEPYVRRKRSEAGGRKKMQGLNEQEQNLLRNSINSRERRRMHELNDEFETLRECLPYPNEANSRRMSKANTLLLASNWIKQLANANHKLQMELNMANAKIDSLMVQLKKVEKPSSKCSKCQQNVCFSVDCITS

The target of data set [8] is T8, mab-3 (Y53C12B.5) (Caenorhabditis elegans) (UniProt O18214).
T8 sequence: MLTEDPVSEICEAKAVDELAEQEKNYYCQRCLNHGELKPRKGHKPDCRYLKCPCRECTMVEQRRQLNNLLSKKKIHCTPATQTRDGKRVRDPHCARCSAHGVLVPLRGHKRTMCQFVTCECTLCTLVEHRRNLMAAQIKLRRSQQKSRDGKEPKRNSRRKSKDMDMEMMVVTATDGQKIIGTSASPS

Data set [9] relates to T9, C34D1.1 (C34D1.1) (Caenorhabditis elegans).
T9 sequence: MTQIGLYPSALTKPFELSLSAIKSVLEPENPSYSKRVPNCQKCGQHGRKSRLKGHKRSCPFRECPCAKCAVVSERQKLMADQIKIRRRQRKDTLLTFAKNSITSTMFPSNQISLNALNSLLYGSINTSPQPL

For data set [10], the system named is T10, dmd-3 (Y43F8C.10) (Caenorhabditis elegans).
T10 sequence: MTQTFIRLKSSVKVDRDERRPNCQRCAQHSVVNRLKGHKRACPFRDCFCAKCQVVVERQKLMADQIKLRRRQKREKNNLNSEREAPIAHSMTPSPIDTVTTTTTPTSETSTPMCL

Data set [11] deals with T11, T27F2.4 (T27F2.4) (Caenorhabditis elegans) (UniProt Q22835).
T11 sequence: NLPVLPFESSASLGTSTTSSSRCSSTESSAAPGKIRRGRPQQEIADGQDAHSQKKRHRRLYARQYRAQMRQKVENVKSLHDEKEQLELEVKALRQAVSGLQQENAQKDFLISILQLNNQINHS

In data set [12] the target is T12, hlh-12 (C28C12.8) (Caenorhabditis elegans) (UniProt Q18277).
T12 sequence: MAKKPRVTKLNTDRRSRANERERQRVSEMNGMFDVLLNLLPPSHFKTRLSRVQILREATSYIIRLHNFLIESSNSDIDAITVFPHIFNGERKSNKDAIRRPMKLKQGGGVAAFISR

Data set [13] deals with T13, nhr-122 (Y41D4B.9) (Caenorhabditis elegans) (UniProt Q95Y09).
T13 sequence: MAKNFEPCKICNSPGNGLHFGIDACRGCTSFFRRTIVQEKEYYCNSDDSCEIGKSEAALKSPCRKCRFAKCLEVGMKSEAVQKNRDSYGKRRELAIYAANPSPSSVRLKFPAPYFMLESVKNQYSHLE

Data set [14] deals with T14, jun-1 (T24H10.7) (Caenorhabditis elegans) (UniProt G5ECU7).
T14 sequence: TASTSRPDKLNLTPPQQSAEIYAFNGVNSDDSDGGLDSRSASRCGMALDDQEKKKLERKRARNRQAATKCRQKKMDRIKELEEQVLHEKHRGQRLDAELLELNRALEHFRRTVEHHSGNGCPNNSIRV

Data set [15] concerns the target T15, let-381 (F26B1.7) (Caenorhabditis elegans) (UniProt P91278).
T15 sequence: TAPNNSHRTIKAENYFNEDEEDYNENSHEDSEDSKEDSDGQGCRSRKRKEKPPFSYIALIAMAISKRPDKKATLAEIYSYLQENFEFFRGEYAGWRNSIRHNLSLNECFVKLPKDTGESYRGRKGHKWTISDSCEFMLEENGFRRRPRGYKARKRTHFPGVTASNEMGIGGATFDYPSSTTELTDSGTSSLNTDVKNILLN

In data set [16] the target is T16, lin-31 (K10G6.1) (Caenorhabditis elegans) (UniProt P34683).
T16 sequence: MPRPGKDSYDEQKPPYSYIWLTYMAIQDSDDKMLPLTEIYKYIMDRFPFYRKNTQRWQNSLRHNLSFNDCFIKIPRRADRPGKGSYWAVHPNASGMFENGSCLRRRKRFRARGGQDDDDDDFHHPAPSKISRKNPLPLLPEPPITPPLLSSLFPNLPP

For “AAAAGGTC (double strand) [8-mer AAAAGGTC]”, in data set [1], the binding signal (PBM E-score (-0.5 to 0.5)) worked out at 0.456.

“AAAGGTCA (double strand) [8-mer AAAGGTCA]”: the figures for the binding signal (PBM E-score (-0.5 to 0.5)) in data set [1], in data set [2] and in data set [3] were 0.493, 0.491 and 0.479, respectively.

In data set [1], “AAAGGTTG (double strand) [8-mer AAAGGTTG]” gave a binding signal (PBM E-score (-0.5 to 0.5)) of 0.454.

“AACAGGTG (double strand) [8-mer AACAGGTG]”: the values for the binding signal (PBM E-score (-0.5 to 0.5)) in data set [4] and in [5] were 0.488 and 0.468, respectively.

Take “AATATGGT (double strand) [8-mer AATATGGT]”: the binding signal (PBM E-score (-0.5 to 0.5)) was 0.466 in [6] and 0.452 in data set [7].

In the case of “AATGTTGC (double strand) [8-mer AATGTTGC]”, the binding signal (PBM E-score (-0.5 to 0.5)) was determined as 0.498 in data set [8], 0.47 in data set [9] and 0.465 in data set [10].

As for “AATGTTTC (double strand) [8-mer AATGTTTC]”, the values for the binding signal (PBM E-score (-0.5 to 0.5)) in [9] and in data set [10] were 0.497 and 0.482, respectively.

In turn, “AATTCGTA (double strand) [8-mer AATTCGTA]” displayed a binding signal (PBM E-score (-0.5 to 0.5)) in data set [11] of 0.47.

In data set [7], “ACAATATG (double strand) [8-mer ACAATATG]” had a binding signal (PBM E-score (-0.5 to 0.5)) of 0.471.

“ACCATATG (double strand) [8-mer ACCATATG]”: the figures for the binding signal (PBM E-score (-0.5 to 0.5)) in [12] and in [7] were 0.468 and 0.478, respectively.

As for “ACCTGTAG (double strand) [8-mer ACCTGTAG]”, in [5], the binding signal (PBM E-score (-0.5 to 0.5)) came to 0.452.

On to “ACCTGTTG (double strand) [8-mer ACCTGTTG]”, for which the binding signal (PBM E-score (-0.5 to 0.5)) in [5] was determined as 0.493.

As to “ACTCCAAT (double strand) [8-mer ACTCCAAT]”, in data set [13], the binding signal (PBM E-score (-0.5 to 0.5)) stood at 0.464.

Turning to “ACTTGTTG (double strand) [8-mer ACTTGTTG]”, the binding signal (PBM E-score (-0.5 to 0.5)) in [5] was determined as 0.465.

For the sequence “AGAAACAT (double strand) [8-mer AGAAACAT]”, the binding signal (PBM E-score (-0.5 to 0.5)) worked out at 0.492 in [9] and 0.466 in data set [10].

The sequence “AGACTCCA (double strand) [8-mer AGACTCCA]” gave a binding signal (PBM E-score (-0.5 to 0.5)) in [13] of 0.457.

“AGCAACAG (double strand) [8-mer AGCAACAG]” displayed a binding signal (PBM E-score (-0.5 to 0.5)) in data set [5] of 0.466.

Take “ATACTCCA (double strand) [8-mer ATACTCCA]”: the binding signal (PBM E-score (-0.5 to 0.5)) in data set [13] was found to be 0.456.

Take “ATGACTAA (double strand) [8-mer ATGACTAA]”: the binding signal (PBM E-score (-0.5 to 0.5)) in data set [14] was determined as 0.465.

Consider “ATGACTCA (double strand) [8-mer ATGACTCA]”, for which the binding signal (PBM E-score (-0.5 to 0.5)) in data set [14] was 0.498.

Turning to “ATGAGTCA (double strand) [8-mer ATGAGTCA]”, in data set [14], the binding signal (PBM E-score (-0.5 to 0.5)) was 0.493.

“ATGTTGCA (double strand) [8-mer ATGTTGCA]”: the binding signal (PBM E-score (-0.5 to 0.5)) in [8] was 0.497; in data set [10], 0.459.

As for “ATGTTTCA (double strand) [8-mer ATGTTTCA]”, the binding signal (PBM E-score (-0.5 to 0.5)) turned out to be 0.498 in [9] and 0.479 in [10].

In the case of “ATTACGAA (double strand) [8-mer ATTACGAA]”, the binding signal (PBM E-score (-0.5 to 0.5)) in data set [11] came out at 0.485.

In data set [14], “ATTAGTCA (double strand) [8-mer ATTAGTCA]” displayed a binding signal (PBM E-score (-0.5 to 0.5)) of 0.463.

On to “ATTCGTAA (double strand) [8-mer ATTCGTAA]”, for which, in data set [11], the binding signal (PBM E-score (-0.5 to 0.5)) was found to be 0.489.

The sequence “CAATATGG (double strand) [8-mer CAATATGG]” yielded a binding signal (PBM E-score (-0.5 to 0.5)) in data set [7] of 0.486.

On to “CAATATTG (double strand) [8-mer CAATATTG]”, for which the binding signal (PBM E-score (-0.5 to 0.5)) in data set [7] was found to be 0.495.

Turning to “CCATATGG (double strand) [8-mer CCATATGG]”, the binding signal (PBM E-score (-0.5 to 0.5)) in data set [7] was determined as 0.452.

“CCTGTTGC (double strand) [8-mer CCTGTTGC]”: the binding signal (PBM E-score (-0.5 to 0.5)) in data set [5] is 0.479.

In data set [1], “GAAAGGTC (double strand) [8-mer GAAAGGTC]” returned a binding signal (PBM E-score (-0.5 to 0.5)) of 0.461.

The sequence “GACTCCAA (double strand) [8-mer GACTCCAA]” registered a binding signal (PBM E-score (-0.5 to 0.5)) in [13] of 0.459.

“GTGACTCA (double strand) [8-mer GTGACTCA]” showed a binding signal (PBM E-score (-0.5 to 0.5)) in [14] of 0.47.

On to “GTGAGTCA (double strand) [8-mer GTGAGTCA]”, for which the binding signal (PBM E-score (-0.5 to 0.5)) in data set [14] worked out at 0.478.

As for “TAAACAAA (double strand) [8-mer TAAACAAA]”, the values for the binding signal (PBM E-score (-0.5 to 0.5)) in data set [15] and in data set [16] were 0.493 and 0.473, respectively.

In turn, “TACGAATA (double strand) [8-mer TACGAATA]” displayed a binding signal (PBM E-score (-0.5 to 0.5)) in data set [11] of 0.452.

In data set [13], “TACTCCAA (double strand) [8-mer TACTCCAA]” gave a binding signal (PBM E-score (-0.5 to 0.5)) of 0.459.

As for “TATTTACA (double strand) [8-mer TATTTACA]”, the binding signal (PBM E-score (-0.5 to 0.5)) in data set [16] was 0.474.

For the sequence “TTCGTAAA (double strand) [8-mer TTCGTAAA]”, in [11], the binding signal (PBM E-score (-0.5 to 0.5)) turned out to be 0.458.
